Data published in patent US20210284747A1 (CAPELLA BIOSCIENCE, published 2021).

Experiments:
[1] = target: T1, Human LIGHT stably expressed on EL4 cells (EL4-LIGHT) (human, UniProt O43557 1-240); assay: flow cytometry competition on EL4-LIGHT cells, co-incubation 40 min 4 C; blocked ligand DcR3-Fc-AF647 0.8 ug/ml; same IC50 as 0.020ug/ml, second unit printed
T1 construct: whole, on cells; also called membrane LIGHT
Procedure: (§1) EL4-LIGHT cells were co-incubated with Alexa Fluor 647 conjugated DcR3-Fc (DcR3-Fc-AF647; 0.8 μg/ml) and graded concentrations (31 μg/ml to 128 μg/ml) of anti-membrane LIGHT antibodies (3B04, 03D12 and 02B111) for 40 min at 4° C. A control, of a mAb that binds both soluble and membrane LIGHT was included (F19 from EP2292663). The samples were washed three times and flow cytometry analysis was performed. Specific mean fluorescence intensity (MFI) obtained from the binding of DcR3-Fc-AF647 to LIGHT on EL4 cells were used to determine the levels of competition binding.

[2] = target: T2, Recombinant human soluble LIGHT, amino acids 74-240 (R&D Systems 664-LI) (human, UniProt O43557 74-240); assay: summary statement comparing soluble LIGHT binding with membrane LIGHT binding; soluble LIGHT preparation not specified
T2 construct: range 74-240; Glycosylated trimer by native MS; also called 74-240 LIGHT
T2 chain: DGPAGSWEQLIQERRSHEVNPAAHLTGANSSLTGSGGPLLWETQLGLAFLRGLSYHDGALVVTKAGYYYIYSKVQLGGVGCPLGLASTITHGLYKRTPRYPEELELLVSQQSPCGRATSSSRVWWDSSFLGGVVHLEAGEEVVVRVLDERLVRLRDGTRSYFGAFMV

[3] = target: T1, Human LIGHT stably expressed on EL4 …; assay: flow cytometry competition on EL4-LIGHT cells, co-incubation 40 min 4 C; blocked ligand DcR3-Fc-AF647 0.8 ug/ml; displacement is partial
Procedure: as §1

[4] = target: LIGHT without residues 81-84, stably expressed on EL4 cells (EL4-NC-LIGHT); assay: cell-based or functional assay
[5] = target: T1, Human LIGHT stably expressed on EL4 …; assay: KD calculated from the EC50 on EL4-LIGHT cells (Table 7)
[6] = target: T1, Human LIGHT stably expressed on EL4 …; assay: flow cytometry competition on EL4-LIGHT cells, co-incubation 40 min 4 C; blocked ligand DcR3-Fc-AF647 0.8 ug/ml; same IC50 as 0.031ug/ml, second unit printed
Procedure: as §1

B1: 3B04 chimeric IgG4 mAb (antibody, V domains shown)
VH: QVQLQQPGAELVRPGASVTLSCKASGYTFTDYEMHWVKQTPVHGLEWIGEIDPETGDTAYSQKFKGKATLTADKSSSTAYMEFRSLTSEDSAVYYCSRETDYFFDYWGQGTTLTVSS
VL: DIQMTQTPASLSASVGETVTITCGASENIYGALNWYQRKQGKSPQLLIYGATNLADGMSSRFSGSGSGRQYSLKISSLHPDDFATYYCQNVLTTPWTFGGGTKLEIK
notes: also called Parental 3B04
**Q.** For B1, which IC50 [1] is on record?
**A.** 0.138 nM

**Q.** What about the “fold less specific to soluble LIGHT than membrane LIGHT” value [2] of the same binder?
**A.** > 100 fold

**Q.** What about the IC50 [3] of the same binder?
**A.** 0.02 µg/mL

**Q.** And the “IC50, inhibition of IL-8 secretion, HT-29 + EL4-NC-LIGHT cells” value [4]?
**A.** 0.05 nM

**Q.** And the Kd [5]?
**A.** 0.1 nM

B2: 3D12 chimeric IgG4 mAb (antibody, V domains shown)
VH: QVQLQQPGAELVRPGASVTLSCKASDYTFTDSEIHWVKQTPVHGLEWIGEIDPETGGTAYNQKFKGKATLTADKSSSTAYMELRSLTSEDSAVYYCSRETDYFFDYWGQGTTLTVSS
VL: DIQMTQSPASLSASVGETVTITCGASENIYGALNWYQRKQGKSPQLLIYGATNLADGMSSRFSGSGSGRQYSLKISSLHPDDVATYYCQNVLSTPWTFGGGTKLEIK
notes: Chimeric human IgG4 (S-to-P, L-to-E) with human CL, as m1; also called Parental 3D12; 03D12
**Q.** How did the IC50 [3] turn out when B2 was run?
**A.** 0.031 µg/mL

**Q.** And the “IC50, inhibition of IL-8 secretion, HT-29 + EL4-NC-LIGHT cells” value [4]?
**A.** 0.32 nM

**Q.** What about the IC50 [6] of the same binder?
**A.** 0.214 nM

**Q.** What about the Kd [5] of the same binder?
**A.** 0.07 nM
